Measured values: patent US20220411504A1 (Janssen / Centocor, published 2022)

B1: HC3B235 (bispecific antibody, human IgG1, kappa, L234A L235A)
scFv: QTVVTQEPSLTVSPGGTVTLTCRSSTGAVTTSNYANWVQQKPGQAPRGLIGGTNKRAPGTPARFSGSLLGGKAALTLSGVQPEDEAEYYCALWYSNLWVFGGGTKLTVLGGSEGKSSGSGSESKSTGGSEVQLVESGGGLVQPGGSLRLSCAASGFTFNTYAMNWVRQAPGKGLEWVARIRSKYNNYATYYAASVKGRFTISRDDSKNSLYLQMNSLKTEDTAVYYCVRHGNFGNSYVSWFAYWGQGTLVTVSSEPKSSDKTHTCPPCPAPEAAGGPSVFLFPPKPKDTLMISRTPEVTCVVVSVSHEDPEVKFNWYVDGVEVHNAKTKPREEQYNSTYRVVSVLTVLHQDWLNGKEYKCKVSNKALPAPIEKTISKAKGQPREPQVYVYPPSREEMTKNQVSLTCLVKGFYPSDIAVEWESNGQPENNYKTTPPVLDSDGSFALVSKLTVDKSRWQQGNVFSCSVMHEALHNHYTQKSLSLSPG
heavy: QVQLQQSGPGLVKPSQTLSLTCAISGDSVSSNRAAWNWIRQSPSRGLEWLGRTYYRSKWYNDYAVSVKSRITINPDTSKNQISLQLNSVTPEDTAVYYCARVRPGIPFDYWGQGTPVTVSSASTKGPSVFPLAPSSKSTSGGTAALGCLVKDYFPEPVTVSWNSGALTSGVHTFPAVLQSSGLYSLSSVVTVPSSSLGTQTYICNVNHKPSNTKVDKKVEPKSCDKTHTCPPCPAPEAAGGPSVFLFPPKPKDTLMISRTPEVTCVVVSVSHEDPEVKFNWYVDGVEVHNAKTKPREEQYNSTYRVVSVLTVLHQDWLNGKEYKCKVSNKALPAPIEKTISKAKGQPREPQVYVLPPSREEMTKNQVSLLCLVKGFYPSDIAVEWESNGQPENNYLTWPPVLDSDGSFFLYSKLTVDKSRWQQGNVFSCSVMHEALHNHYTQKSLSLSPG
light: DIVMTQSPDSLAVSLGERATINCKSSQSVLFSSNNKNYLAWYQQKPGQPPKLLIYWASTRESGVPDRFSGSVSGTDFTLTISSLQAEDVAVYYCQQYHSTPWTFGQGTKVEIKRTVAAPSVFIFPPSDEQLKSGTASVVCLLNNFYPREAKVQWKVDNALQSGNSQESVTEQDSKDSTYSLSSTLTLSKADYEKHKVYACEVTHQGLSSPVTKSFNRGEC
B2: HC3B230 (bispecific antibody, human IgG1, kappa, L234A L235A)
scFv: B1 scFv
heavy: QVQLQQSGPGLVKPSQTLSLTCAISGDSVSSNSAAWNWIRQSPSRGLEWLGRTYYRSKWYNDYAVSVKSRITINPDTSKNQISLQLNSVTPEDTAVYYCAGDRRYGIVGLPFAYWGQGTLVTVSSASTKGPSVFPLAPSSKSTSGGTAALGCLVKDYFPEPVTVSWNSGALTSGVHTFPAVLQSSGLYSLSSVVTVPSSSLGTQTYICNVNHKPSNTKVDKKVEPKSCDKTHTCPPCPAPEAAGGPSVFLFPPKPKDTLMISRTPEVTCVVVSVSHEDPEVKFNWYVDGVEVHNAKTKPREEQYNSTYRVVSVLTVLHQDWLNGKEYKCKVSNKALPAPIEKTISKAKGQPREPQVYVLPPSREEMTKNQVSLLCLVKGFYPSDIAVEWESNGQPENNYLTWPPVLDSDGSFFLYSKLTVDKSRWQQGNVFSCSVMHEALHNHYTQKSLSLSPG
light: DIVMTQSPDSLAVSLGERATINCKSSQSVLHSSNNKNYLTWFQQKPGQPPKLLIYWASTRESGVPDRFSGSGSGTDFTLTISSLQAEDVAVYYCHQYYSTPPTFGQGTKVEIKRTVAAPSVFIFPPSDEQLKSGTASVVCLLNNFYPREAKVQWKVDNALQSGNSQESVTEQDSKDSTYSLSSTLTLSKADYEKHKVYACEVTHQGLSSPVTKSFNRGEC
B3: HC3B124 (bispecific antibody, human IgG1, lambda, L234A L235A)
heavy: EVQLVESGGGLVQPGGSLRLSCAASGFTFNTYAMNWVRQAPGKGLEWVARIRSKYNNYATYYAASVKGRFTISRDDSKNSLYLQMNSLKTEDTAVYYCVRHGNFGNSYVSWFAYWGQGTLVTVSSASTKGPSVFPLAPSSKSTSGGTAALGCLVKDYFPEPVTVSWNSGALTSGVHTFPAVLQSSGLYSLSSVVTVPSSSLGTQTYICNVNHKPSNTKVDKKVEPKSCDKTHTCPPCPAPEAAGGPSVFLFPPKPKDTLMISRTPEVTCVVVSVSHEDPEVKFNWYVDGVEVHNAKTKPREEQYNSTYRVVSVLTVLHQDWLNGKEYKCKVSNKALPAPIEKTISKAKGQPREPQVYVYPPSREEMTKNQVSLTCLVKGFYPSDIAVEWESNGQPENNYKTTPPVLDSDGSFALVSKLTVDKSRWQQGNVFSCSVMHEALHNHYTQKSLSLSPG
light: QTVVTQEPSLTVSPGGTVTLTCRSSTGAVTTSNYANWVQQKPGQAPRGLIGGTNKRAPGTPARFSGSLLGGKAALTLSGVQPEDEAEYYCALWYSNLWVFGGGTKLTVLGQPKAAPSVTLFPPSSEELQANKATLVCLISDFYPGAVTVAWKADSSPVKAGVETTTPSKQSNNKYAASSYLSLTPEQWKSHRSYSCQVTHEGSTVEKTVAPTECS
scFv: DIVMTQSPDSLAVSLGERATINCKSSQSVLHSSNNKNYLTWFQQKPGQPPKLLIYWASTRESGVPDRFSGSGSGTDFTLTISSLQAEDVAVYYCHQYYSTPPTFGQGTKVEIKGGSEGKSSGSGSESKSTGGSQVQLQQSGPGLVKPSQTLSLTCAISGDSVSSNSAAWNWIRQSPSRGLEWLGRTYYRSKWYNDYAVSVKSRITINPDTSKNQISLQLNSVTPEDTAVYYCAGDRRYGIVGLPFAYWGQGTLVTVSSEPKSSDKTHTCPPCPAPEAAGGPSVFLFPPKPKDTLMISRTPEVTCVVVSVSHEDPEVKFNWYVDGVEVHNAKTKPREEQYNSTYRVVSVLTVLHQDWLNGKEYKCKVSNKALPAPIEKTISKAKGQPREPQVYVLPPSREEMTKNQVSLLCLVKGFYPSDIAVEWESNGQPENNYLTWPPVLDSDGSFFLYSKLTVDKSRWQQGNVFSCSVMHEALHNHYTQKSLSLSPG
B4: HC3B123 (bispecific antibody, human IgG1, kappa, L234A L235A)
heavy: EVQLVESGGGLVKPGGSLRLSCAASGFTFSRYNMNWVRQAPGKGLEWVSSISTSSNYIYYADSVKGRFTFSRDNAKNSLDLQMSGLRAEDTAIYYCTRGWGPFDYWGQGTLVTVSSASTKGPSVFPLAPSSKSTSGGTAALGCLVKDYFPEPVTVSWNSGALTSGVHTFPAVLQSSGLYSLSSVVTVPSSSLGTQTYICNVNHKPSNTKVDKKVEPKSCDKTHTCPPCPAPEAAGGPSVFLFPPKPKDTLMISRTPEVTCVVVSVSHEDPEVKFNWYVDGVEVHNAKTKPREEQYNSTYRVVSVLTVLHQDWLNGKEYKCKVSNKALPAPIEKTISKAKGQPREPQVYVYPPSREEMTKNQVSLTCLVKGFYPSDIAVEWESNGQPENNYKTTPPVLDSDGSFALVSKLTVDKSRWQQGNVFSCSVMHEALHNHYTQKSLSLSPG
light: DIQMTQSPSSLSASVGDRVTITCRARQSIGTAIHWYQQKPGKAPKLLIKYASESISGVPSRFSGSGSGTDFTLTISSVQPEDFATYYCQQSGSWPYTFGQGTKLEIKRTVAAPSVFIFPPSDEQLKSGTASVVCLLNNFYPREAKVQWKVDNALQSGNSQESVTEQDSKDSTYSLSSTLTLSKADYEKHKVYACEVTHQGLSSPVTKSFNRGEC
scFv: B3 scFv
B5: HC3B216 (bispecific antibody, human IgG1, lambda, L234A L235A)
heavy: QVQLQQSGPRLVRPSQTLSLTCAISGDSVFNNNAAWSWIRQSPSRGLEWLGRTYYRSKWLYDYAVSVKSRITVNPDTSRNQFTLQLNSVTPEDTALYYCARGYSSSFDYWGQGTLVTVSSASTKGPSVFPLAPSSKSTSGGTAALGCLVKDYFPEPVTVSWNSGALTSGVHTFPAVLQSSGLYSLSSVVTVPSSSLGTQTYICNVNHKPSNTKVDKKVEPKSCDKTHTCPPCPAPEAAGGPSVFLFPPKPKDTLMISRTPEVTCVVVSVSHEDPEVKFNWYVDGVEVHNAKTKPREEQYNSTYRVVSVLTVLHQDWLNGKEYKCKVSNKALPAPIEKTISKAKGQPREPQVYVYPPSREEMTKNQVSLTCLVKGFYPSDIAVEWESNGQPENNYKTTPPVLDSDGSFALVSKLTVDKSRWQQGNVFSCSVMHEALHNHYTQKSLSLSPG
light: QSALTQPASVSGSPGQSITISCTGTSSNIGTYKFVSWYQQHPDKAPKVLLYEVSKRPSGVSSRFSGSKSGNTASLTISGLQAEDQADYHCVSYAGSGTLLFGGGTKLTVLGQPKAAPSVTLFPPSSEELQANKATLVCLISDFYPGAVTVAWKADSSPVKAGVETTTPSKQSNNKYAASSYLSLTPEQWKSHRSYSCQVTHEGSTVEKTVAPTECS
scFv: not shown
B6: HC3B232 (bispecific antibody, human IgG1, kappa, L234A L235A)
scFv: DIQMTQSPSSLSASVGDRVTITCRARQSIGTAIHWYQQKPGKAPKLLIKYASESISGVPSRFSGSGSGTDFTLTISSVQPEDFATYYCQQSGSWPYTFGQGTKLEIKGGSEGKSSGSGSESKSTGGSEVQLVESGGGLVKPGGSLRLSCAASGFTFSRYNMNWVRQAPGKGLEWVSSISTSSNYIYYADSVKGRFTFSRDNAKNSLDLQMSGLRAEDTAIYYCTRGWGPFDYWGQGTLVTVSSEPKSSDKTHTCPPCPAPEAAGGPSVFLFPPKPKDTLMISRTPEVTCVVVSVSHEDPEVKFNWYVDGVEVHNAKTKPREEQYNSTYRVVSVLTVLHQDWLNGKEYKCKVSNKALPAPIEKTISKAKGQPREPQVYVYPPSREEMTKNQVSLTCLVKGFYPSDIAVEWESNGQPENNYKTTPPVLDSDGSFALVSKLTVDKSRWQQGNVFSCSVMHEALHNHYTQKSLSLSPGK
heavy: B2 heavy
light: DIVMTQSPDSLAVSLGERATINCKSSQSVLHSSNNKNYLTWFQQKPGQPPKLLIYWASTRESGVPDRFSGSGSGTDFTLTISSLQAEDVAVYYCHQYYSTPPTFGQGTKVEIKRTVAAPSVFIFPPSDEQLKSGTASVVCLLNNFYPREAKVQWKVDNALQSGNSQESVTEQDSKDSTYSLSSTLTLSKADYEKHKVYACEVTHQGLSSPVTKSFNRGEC
B7: HC3B231 (bispecific antibody, human IgG1, kappa, L234A L235A)
scFv: QSALTQPASVSGSPGQSITISCTGTSSNIGTYKFVSWYQQHPGKAPKVMIYEVSKRPSGVSNRFSGSKSGNTASLTISGLQAEDEADYYCVSYAGSGTLLFGGGTKLTVLGGSEGKSSGSGSESKSTGGSQVQLQQSGPGLVKPSQTLSLTCAISGDSVFNNNAAWSWIRQSPSRGLEWLGRTYYRSKWLYDYAVSVKSRITINPDTSKNQFSLQLNSVTPEDTAVYYCARGYSSSFDYWGQGTLVTVSSEPKSSDKTHTCPPCPAPEAAGGPSVFLFPPKPKDTLMISRTPEVTCVVVSVSHEDPEVKFNWYVDGVEVHNAKTKPREEQYNSTYRVVSVLTVLHQDWLNGKEYKCKVSNKALPAPIEKTISKAKGQPREPQVYVYPPSREEMTKNQVSLTCLVKGFYPSDIAVEWESNGQPENNYKTTPPVLDSDGSFALVSKLTVDKSRWQQGNVFSCSVMHEALHNHYTQKSLSLSPG
heavy: B2 heavy
light: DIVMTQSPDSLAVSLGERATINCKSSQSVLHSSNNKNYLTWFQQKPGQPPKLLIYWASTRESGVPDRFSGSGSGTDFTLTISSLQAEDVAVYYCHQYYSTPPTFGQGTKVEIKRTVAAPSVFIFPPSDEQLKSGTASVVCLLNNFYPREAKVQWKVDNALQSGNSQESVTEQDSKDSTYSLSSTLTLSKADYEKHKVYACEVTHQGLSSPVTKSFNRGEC
B8: MHGB737 (antibody, human IgG1, kappa, V domains shown)
VH: EVQLLESGGGLVQPGGSLRLSCAASGFTFSSYAMHWVRQAPGKGLEWVSGISGSGFSTYYVDSVKGRFTISRDNSKNTLYLQMNSLRAEDTAVYYCAKDNLVAGTVFDYWGQGTLVTVSS
VL: not shown
notes: IgG1; also called GL-optimized B694

Key:
[1] = molecular target: HLA-G on cells (K562-HLA-G and HLA-G expressing tumor cells) (human); assay: cell-based or functional assay
[2] = molecular target: T1, MHGW8 (B2m-3(G4S)-HLA-G1-G4S-Avi) (human, biotinylated (Avi tag) in the blocking assay); assay: SPR, mAb captured by goat anti-human Fc, MHGW8 flowed
T1 construct: Single chain β2m-HLA-G1; also called soluble HLA-G1 extracellular domain; recombinant biotinylated HLA-G1

Binder | Cytotoxicity, EC50 (T cell-mediated, NCI-H2009-b2m target cells, 72 hr) [1] [pM] | also measured
B1 | 83.7 | –
B2 | 9.92 | –
B3 | 3.85 | –
B4 | 3.24 | –
B5 | 1900 | –
B6 | 6.77 | –
B7 | 126 | –
B8 | – | Kd [2]: 2.56 nM; koff [2]: 0.00031 s⁻¹; kon [2]: 200000 M⁻¹ s⁻¹
